Biological target: the RBD of spike (depending on domain and variant)
Assay: ELISA

Sequence of LRRC15-Fc (Q8TF66 22-538): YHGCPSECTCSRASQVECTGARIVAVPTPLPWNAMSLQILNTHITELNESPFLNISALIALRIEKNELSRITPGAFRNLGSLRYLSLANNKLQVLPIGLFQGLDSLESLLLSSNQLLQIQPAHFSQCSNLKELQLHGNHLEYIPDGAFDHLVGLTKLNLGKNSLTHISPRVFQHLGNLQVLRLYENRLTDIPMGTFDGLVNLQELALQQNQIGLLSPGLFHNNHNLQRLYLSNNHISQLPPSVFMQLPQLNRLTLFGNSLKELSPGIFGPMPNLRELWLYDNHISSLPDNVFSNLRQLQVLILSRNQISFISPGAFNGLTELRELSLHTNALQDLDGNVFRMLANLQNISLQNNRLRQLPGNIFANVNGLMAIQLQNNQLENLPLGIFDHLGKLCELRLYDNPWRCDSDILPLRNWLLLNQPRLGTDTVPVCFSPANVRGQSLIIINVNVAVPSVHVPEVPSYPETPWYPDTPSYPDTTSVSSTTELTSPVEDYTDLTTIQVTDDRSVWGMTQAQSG

Substance: LRRC15-Fc (from UniProt Q8TF66) (Fc fusion)
- Kd: 43 to 148 nM
